In patent publication EP2644619A1 (Spiber Technologies AB, dated 2013):

Columns and labels:
[1] = biological target: NT (wild type N-terminal fragment of Euprosthenops australis major spidroin 1) (Euprosthenops australis); assay: tryptophan fluorescence, 5 uM protein, between pH 7 and pH 6; the filing uses it as a probe of dimerisation
[2] = biological target: the molecule itself; assay: comparative structural studies, pH lowered from 7 to 6 (self-association)

B1: NT (wild type N-terminal fragment of Euprosthenops australis major spidroin 1) (protein)
chain: GSGNSHTTPWTNPGLAENFMNSFMQGLSSMPGFTASQLDDMSTIAQSMVQSIQSLAAQGRTSPNKLQALNMAFASSMAEIAASEEGGGSLSTKTSSIASAMSNAFLQTTGVVNQPFINEITQLVSMFAQAGMNDVSA
- red-shift in fluorescence emission [1]: 15 nm

B2: NT^A72R (other)
chain: GSGNSHTTPWTNPGLAENFMNSFMQGLSSMPGFTASQLDDMSTIAQSMVQSIQSLAAQGRTSPNKLQALNMRFASSMAEIAASEEGGGSLSTKTSSIASAMSNAFLQTTGVVNQPFINEITQLVSMFAQAGMNDVSA
notes: also called mutated NT; mutant NT
- binding result [2]: no binding
